In experiment [1] the target is T1, hFcγIIa-H131 (human, UniProt P12318 34-217).
T1 construct: extracellular domain; H at position 131 of the H/R131 polymorphism; also called hFcγRIIa (CD32a) H131
T1 sequence (looked up): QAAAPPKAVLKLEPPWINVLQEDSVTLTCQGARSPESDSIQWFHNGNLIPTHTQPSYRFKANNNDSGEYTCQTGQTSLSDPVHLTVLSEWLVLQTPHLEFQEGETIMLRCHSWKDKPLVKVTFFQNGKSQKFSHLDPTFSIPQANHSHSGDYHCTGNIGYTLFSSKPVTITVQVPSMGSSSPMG
The experiment in a line: SPR (Biacore 8K), 25° C, antibody captured on nectin-4-coated chip, receptor ECD as analyte, steady-state analysis. From the text: (§1) The data was processed and analyzed with Biacore 8K Evaluation Software Version 3.0.12.15655 (Cytiva, Global Life Sciences Solutions USA LLC, Marlborough, MA). Reference responses from flow cell 1 were subtracted from the active responses from flow cell 2 to obtain the subtracted data (2-1). The responses from the nearest buffer blank injection were then subtracted from the reference subtracted data (2-1) to yield double-referenced data. For hFcγRI, these double-reference data were fit to a simple 1:1 Langmuir binding model with mass transport to determine the apparent association (ka) and dissociation rate constants (kd). The apparent equilibrium dissociation constant or affinity constant was then calculated based on their ratio as (KD=kd/ka). Binding affinity KD values for all the other hFcγR interactions (hFcγIIa-H131, hFcγIIa-R131, hFcγIIIa, and FcγIIIaV158F) were analyzed using a “steady state” (or “equilibrium binding”) method due to their fast on rates and fast off rates.

Experiment [2] has as its target T2, hFcγIIa-R131 (human, UniProt P12318 36-218).
T2 construct: extracellular domain; Position 131 is the customary mature-protein numbering, not the precursor numbering of the database entry; also called hFcγRIIa (CD32a) R131
T2 sequence (looked up): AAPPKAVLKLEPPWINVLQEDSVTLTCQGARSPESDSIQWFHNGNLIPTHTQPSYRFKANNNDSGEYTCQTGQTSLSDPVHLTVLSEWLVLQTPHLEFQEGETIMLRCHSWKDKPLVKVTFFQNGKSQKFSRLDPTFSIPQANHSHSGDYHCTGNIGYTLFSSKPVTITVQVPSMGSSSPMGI
Described as above.
Source text: as §1

The target of experiment [3] is T3, hFcRn ECD protein (human, UniProt P55899 24-297; P61769 21-119).
T3 construct: extracellular domain; also called human FcRn; neonatal Fc receptor
T3 sequence (P55899 24-297 limits assumed, chain 1 of 2): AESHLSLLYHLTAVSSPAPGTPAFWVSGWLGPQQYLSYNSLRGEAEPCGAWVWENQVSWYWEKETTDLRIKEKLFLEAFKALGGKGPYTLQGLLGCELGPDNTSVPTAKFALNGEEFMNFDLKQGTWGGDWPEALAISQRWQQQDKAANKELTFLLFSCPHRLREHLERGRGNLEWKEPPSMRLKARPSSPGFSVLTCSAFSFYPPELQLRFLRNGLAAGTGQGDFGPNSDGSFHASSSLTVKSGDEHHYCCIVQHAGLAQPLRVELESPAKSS
T3 sequence (P61769 21-119 limits assumed, chain 2 of 2): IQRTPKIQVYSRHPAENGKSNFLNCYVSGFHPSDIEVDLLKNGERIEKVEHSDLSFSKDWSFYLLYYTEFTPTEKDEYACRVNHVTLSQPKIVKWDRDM
The experiment is described as follows: SPR (Biacore 8K), 25° C, PBS pH 5.8, antibody captured on nectin-4-coated chip, hFcRn ECD as analyte, steady-state analysis. Here is the method:
(§2) All experiments were performed at 25° C. using a Biacore 8K equipped with S-type sensor chips and the kinetics data analyses were done using the Biacore Insight Evaluation Software. The running buffer was PBS pH 5.8 with 0.01% Tween-20 for hFcRn interactions and the running buffer for capture was HBS-EP+. Analyte hFcRn ECD protein was used at its nominal concentrations. A “single cycle kinetics” injection mode was used.
(§3) The interactions of DRUG B and DRUG C with hFcRn were analyzed by flowing the hFcRn ECD protein over DRUG B or DRUG C captured on a nectin-4-coated CMS chip. Up to 2400 RU of human nectin-4 ECD were immobilized on both flow cells (1 and 2) of a CMS chip using amine chemistry following Cytiva amine coupling kit instructions. DRUG B or DRUG C were captured on flow cell 2 of each channel for 120 seconds at 10 μL/min at […] in HBS-EP+(100-200 RUs) in a surface preparation method. The hFcRn run was done in PBS pH 5.8 with 0.01% Tween-20. […] Association and dissociation times were monitored for 120s and 600s, respectively. […]
(§4) The data was processed and analyzed with Biacore 8K Evaluation Software Version 3.0.12.15655 (Cytiva, Global Life Sciences Solutions USA LLC, Marlborough, MA). […] Binding affinity KD values were analyzed using a “steady state” (or “equilibrium binding”) method due to their fast on rates and fast off rates.
(Surface plasmon resonance follows binding to a sensor surface in real time, without labels.)

For experiment [4], the target named is T4, hFcγIa (human, UniProt P12314 16-292).
T4 construct: extracellular domain; also called hFcγRI; CD64
T4 sequence (P12314 16-292): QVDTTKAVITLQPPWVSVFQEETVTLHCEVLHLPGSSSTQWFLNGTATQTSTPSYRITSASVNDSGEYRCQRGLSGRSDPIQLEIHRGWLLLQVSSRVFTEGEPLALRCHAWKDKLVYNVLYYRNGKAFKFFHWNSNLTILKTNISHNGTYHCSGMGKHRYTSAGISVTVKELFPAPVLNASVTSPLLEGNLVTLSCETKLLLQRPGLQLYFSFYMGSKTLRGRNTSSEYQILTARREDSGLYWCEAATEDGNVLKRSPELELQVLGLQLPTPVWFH
The experiment in a line: SPR (Biacore 8K), 25° C, antibody captured on nectin-4-coated chip, receptor ECD as analyte, single-cycle kinetics, 1:1 fit.
Source text: as §1

Experiment [5] has as its target T5, human Nectin-4 extracellular domain (ECD) with C-terminal His6 (human, UniProt Q96NY8 32-349).
T5 construct: also called human Nectin-4-ECD; human nectin-4 ECD
T5 sequence: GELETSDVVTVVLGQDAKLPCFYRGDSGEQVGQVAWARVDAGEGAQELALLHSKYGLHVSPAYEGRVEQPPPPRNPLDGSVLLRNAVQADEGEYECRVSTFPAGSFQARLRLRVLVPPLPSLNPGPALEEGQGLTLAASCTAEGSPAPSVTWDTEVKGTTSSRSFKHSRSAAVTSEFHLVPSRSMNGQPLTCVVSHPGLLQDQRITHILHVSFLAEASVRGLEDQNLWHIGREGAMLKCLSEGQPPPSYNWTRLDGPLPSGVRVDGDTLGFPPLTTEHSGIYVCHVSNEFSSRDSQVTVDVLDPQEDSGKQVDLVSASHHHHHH
The experiment is described as follows: SPR (Biacore 8K), DRUG B captured on Protein A chip, nectin-4-ECD as analyte, single-cycle kinetics, 1:1 fit, 37° C; 37° C., human nectin-4-ECD. Here is the method:
(§5) Kinetic injection method used was “single cycle kinetics” (also known as “kinetic titration”) (Karlsson et al. (2006) Analytical Biochemistry. 349(1):136-147).
(§6) The interactions of DRUG B, i.e., an anti-Nectin-4 monoclonal antibody, with the extracellular domain (ECD) of human nectin-4 were analyzed by flowing nectin-4-ECD over DRUG B captured (200-400 RUs) on Biacore Series S Sensor Chip Protein A. DRUG B, at ˜1 μg/mL concentration was captured in flow cell 2 of each channel at flow rate 10 μL/min for 60 seconds (s) contact time while buffer was used for Flow cell 1 respectively. The human nectin-4-ECD analytes were prepared as a 5-membered 3-fold dilution series with top nominal concentration of 300 nM, and each analyte series was injected in order of ascending concentration using a single-cycle kinetics method. Association and dissociation times were monitored for 120s and 1800s, respectively, at 30 μL/min flow rate. The surfaces were regenerated with 75 mM phosphoric acid at pH 1.6 using two pulses of 15s at 30 μL/min flow rate.
(§7) To analyze the data, the following processing steps were applied. Reference responses from flow cell 1 (reference surface) were subtracted from the active responses from flow cell 2 (reaction surface) to obtain the subtracted data (2-1). […]

Experiment [6] addresses T6, cynomolgus Nectin-4 extracellular domain (ECD) with C-terminal His6 (cynomolgus, UniProt Q96NY8 32-349 (human entry)).
T6 construct: also called Cyno Nectin-4-ECD; cynomolgus nectin-4-ECD
T6 chain: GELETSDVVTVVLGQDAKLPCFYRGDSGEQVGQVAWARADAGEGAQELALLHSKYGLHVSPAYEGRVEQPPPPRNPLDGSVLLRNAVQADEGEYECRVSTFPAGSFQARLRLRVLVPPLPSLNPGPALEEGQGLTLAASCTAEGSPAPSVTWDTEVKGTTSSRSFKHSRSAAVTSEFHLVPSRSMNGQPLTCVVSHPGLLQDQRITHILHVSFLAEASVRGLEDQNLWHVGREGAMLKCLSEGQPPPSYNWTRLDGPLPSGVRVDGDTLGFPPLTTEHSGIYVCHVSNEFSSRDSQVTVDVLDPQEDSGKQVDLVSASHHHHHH
The experiment in a line: SPR (Biacore 8K), DRUG B captured on Protein A chip, nectin-4-ECD as analyte, single-cycle kinetics, 1:1 fit, 25° C; 25° C., cynomolgus nectin-4-ECD.

Experiment [7] concerns the target T6, cynomolgus Nectin-4 extracellular …. The experiment in a line: SPR (Biacore 8K), DRUG B captured on Protein A chip, nectin-4-ECD as analyte, single-cycle kinetics, 1:1 fit, 37° C; 37° C., cynomolgus nectin-4-ECD.
In experiment [8] the target is T5, human Nectin-4 extracellular domain …. The experiment is described as follows: SPR (Biacore 8K), DRUG B captured on Protein A chip, nectin-4-ECD as analyte, single-cycle kinetics, 1:1 fit; temperature dropped in the text, 25° C by context; 25° C. (by context; temperature dropped in the text), human nectin-4-ECD. Here is the method:
as §5, §6, §7

The target is the same in experiment [9]. The experiment is described as follows: SPR, capture on chip with immobilized human nectin-4 ECD (FcγR runs).
The target of experiment [10] is T1, hFcγIIa-H131. The experiment is described as follows: SPR (Biacore 8K), 25° C, ADC captured on nectin-4-coated chip, receptor ECD as analyte, steady-state analysis.
Source text: as §1

The target in experiment [11] is T2, hFcγIIa-R131. Described as above.
Source text: as §1

The target in experiment [12] is T4, hFcγIa. The experiment in a line: SPR (Biacore 8K), 25° C, ADC captured on nectin-4-coated chip, receptor ECD as analyte, single-cycle kinetics, 1:1 fit.
Source text: as §1

Experiment [13] addresses T3, hFcRn ECD protein. The experiment is described as follows: SPR (Biacore 8K), 25° C, PBS pH 5.8, ADC captured on nectin-4-coated chip, hFcRn ECD as analyte, steady-state analysis. As for the experimental part:
as §2, §3, §4

The term Kd denotes the concentration at which binding is half-saturated. A higher Kd goes with weaker binding.

B1: DRUG B (enfortumab similar antibody that specifically binds human nectin-4) (antibody, human IgG1, kappa)
heavy: not shown
light: DIQMTQSPSSVSASVGDRVTITCRASQGISGWLAWYQQKPGKAPKFLIYAASTLQSGVPSRFSGSGSGTDFTLTISSLQPEDFATYYCQQANSFPPTFGGGTKVEIKRTVAAPSVFIFPPSDEQLKSGTASVVCLLNNFYPREAKVQWKVDNALQSGNSQESVTEQDSKDSTYSLSSTLTLSKADYEKHKVYACEVTHQGLSSPVTKSFNRGEC
notes: Expressed in Expi293F cells, about 99% monomer; also called enfortumab similar Ab; Enfortumab similar mAb
Take B1: the Kd was 772 nM with hFcγIIa-H131 [1]; 783 nM with hFcγIIa-R131 [2]; 767 nM with hFcRn ECD protein [3]; 0.056 nM with hFcγIa [4]; ~36.3 nM in experiment [5]; ~22.6 nM in experiment [6]. In addition, the Kd is ~50.7 nM in [7] and ~14.5 nM in [8].

B2: DRUG C (enfortumab vedotin similar antibody-drug conjugate) (antibody, human IgG1, kappa)
heavy: not shown
light: DIQMTQSPSSVSASVGDRVTITCRASQGISGWLAWYQQKPGKAPKFLIYAASTLQSGVPSRFSGSGSGTDFTLTISSLQPEDFATYYCQQANSFPPTFGGGTKVEIKRTVAAPSVFIFPPSDEQLKSGTASVVCLLNNFYPREAKVQWKVDNALQSGNSQESVTEQDSKDSTYSLSSTLTLSKADYEKHKVYACEVTHQGLSSPVTKSFNRGEC
modifications: MC-Val-Cit-PAB-MMAE linker-payload conjugated via interchain cysteines of the antibody; average drug-to-antibody ratio 3.85:1
notes: DRUG B conjugated to MC-Val-Cit-PAB-MMAE; also called enfortumab vedotin similar ADC; copies: 2 + 2
In the case of B2, in experiment [9], the binding result is given as “binds”. The Kd came to 921 nM with hFcγIIa-H131 [10], 846 nM in the experiment with hFcγIIa-R131 [11], 0.091 nM with hFcγIa [12] and 812 nM in the experiment with hFcRn ECD protein [13].

The values are drawn from patent US20240010701A1 (ALX ONCOLOGY, published 2024).
